For one series, the target named is T1, PGAM–PirC complex (Synechocystis sp. PCC 6803, UniProt P74507).
T1 sequence (P74507 1-532): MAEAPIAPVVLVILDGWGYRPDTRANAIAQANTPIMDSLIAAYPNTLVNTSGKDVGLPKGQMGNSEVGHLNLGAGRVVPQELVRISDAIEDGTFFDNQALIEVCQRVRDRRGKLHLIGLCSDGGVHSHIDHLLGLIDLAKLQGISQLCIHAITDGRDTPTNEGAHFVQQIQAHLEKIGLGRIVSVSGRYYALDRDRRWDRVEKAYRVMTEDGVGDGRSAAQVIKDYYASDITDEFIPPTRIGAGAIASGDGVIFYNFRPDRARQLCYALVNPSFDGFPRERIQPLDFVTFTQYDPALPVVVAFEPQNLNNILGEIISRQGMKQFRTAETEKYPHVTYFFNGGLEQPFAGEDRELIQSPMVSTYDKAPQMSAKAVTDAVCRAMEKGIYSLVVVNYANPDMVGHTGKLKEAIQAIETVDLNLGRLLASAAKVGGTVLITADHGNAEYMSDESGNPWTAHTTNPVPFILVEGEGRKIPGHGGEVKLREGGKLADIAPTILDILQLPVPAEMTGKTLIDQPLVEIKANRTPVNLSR
T1 sequence (P77971 53-164 partner): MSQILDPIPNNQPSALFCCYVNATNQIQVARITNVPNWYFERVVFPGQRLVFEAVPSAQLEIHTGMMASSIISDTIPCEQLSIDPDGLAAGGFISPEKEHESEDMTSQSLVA
As to the kind of experiment: bio-layer interferometry, inhibition of PirC–PGAM binding. (Biolayer interferometry detects binding as a change in optical thickness at a sensor tip.)

The target in series [1] is T2, PII–PirC complex (Synechocystis sp. PCC 6803, UniProt Q55247). As to the kind of experiment: bio-layer interferometry, enhancement of PirC–PII binding. The note with it: effector promotes PII–PirC complex.
The target of series [2] is T2, PII–PirC complex. The experiment in a line: bio-layer interferometry, inhibition of PirC–PII binding.
For series [3], the target named is T3, PII signalling protein, C-terminal His8-tagged (Synechocystis sp. PCC 6803, UniProt Q55247 1-112). As to the kind of experiment: BLI.
Series [4] has as its target T3, PII signalling protein, C-terminal …. As to the kind of experiment: SPR. (In general: In SPR one partner is held on a chip, and binding of the other changes the refractive index at the surface.)
Substrate in the series “purified protein”: O=C(O)[C@H](O)COP(=O)(O)O
As to the kind of experiment: purified protein. It counts as biochemical, Synechocystis sp. PCC 6803. The note with it: no PirC, pH 8.0, 30 °C, 5 mM MgSO4, 0.4 mM MnCl2, 100 mM KCl.

Here are results for seven molecules from article PMC8018021 (Proceedings of the National Academy of Sciences of the …, 2021).

Several values for one entry are separate records, joined by “and”; a condition that tells them apart may be missing. Equal entries are not always repeated.

T3 sequence (Q55247 whole entry): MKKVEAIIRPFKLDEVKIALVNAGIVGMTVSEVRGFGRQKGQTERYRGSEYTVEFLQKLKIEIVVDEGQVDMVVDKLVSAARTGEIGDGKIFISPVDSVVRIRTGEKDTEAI
T2 sequence (Q55247 whole entry, one chain of several): as the sequence (Q55247 whole entry) above

With `O=C(O)[C@H](O)COP(=O)(O)O` [3-PGA], the IC50 – broadly, the point on the concentration scale where inhibition reaches its midpoint – at PGAM–PirC complex worked out at 2400 ± 1 µM. With `Nc1ncnc2c1ncn2[C@@H]1O[C@H](COP(=O)(O)OP(=O)(O)O)[C@@H](O)[C@H]1O` [ADP], the “bio-layer interferometry, enhancement of PirC-PII binding” value on PII–PirC complex [1] (2 mM ADP) is on record as “In the presence of ATP or ADP, PirC binding to PII strongly increased”. In the case of `Nc1ncnc2c1ncn2[C@@H]1O[C@H](COP(=O)(O)OP(=O)(O)OP(=O)(O)O)[C@@H](O)[C@H]1O` [ATP], the “bio-layer interferometry, enhancement of PirC-PII binding” value at PII–PirC complex [1] (2 mM ATP) was “In the presence of ATP or ADP, PirC binding to PII strongly increased”. In turn, `O=C(O)CCC(=O)C(=O)O` [2-OG] gave an IC50 on PII–PirC complex [2] of 123.4 ± 1.1 µM. In the case of `O=C(O)[C@@H](CO)OP(=O)(O)O` [2-PGA], the IC50 at PGAM–PirC complex amounted to 970 ± 1 µM.

B1: PirC (PII-interacting regulator of carbon metabolism; product of sll0944), short 112-amino-acid variant, strep-tagged (natural protein)
chain: T1 sequence (P77971 53-164 partner)
Take B1: in series [3], the Kd (in general, the concentration at which binding is half-saturated) was 0.0373 µM and 0.0141 µM. The “stoichiometry N” value in series [4] is ~1 PirC monomer per PII trimer.

B2: PGAM (Synechocystis sp. PCC 6803 substr. Kazusa) (protein)
chain: T1 sequence (P74507 1-532)
As to B2, in the series “purified protein”, the Km (usually the concentration of substrate that gives half-maximal velocity) came to 126.6 ± 6.4 µM; the Vmax (usually the rate approached at saturating substrate) worked out at 2.85 µmol/min/mg; the kcat (as a rule, the number of substrate molecules converted per active site and unit of time at saturation) came to 2.78 ± 0.03 s⁻¹; the kcat/Km (usually the turnover number divided by the Michaelis constant) is 22000 M⁻¹ s⁻¹.
